Experimental data: patent publication US12630600B2 (MEDIMMUNE LIMITED, priority 2022, dated 2026)
Starred links: 1 amine or outer side, 2 acyl side, 3 side chain; linkers in the order of their positions; H or OH if unused. Non-standard residues stand in square brackets, D forms with d. Groups on a side chain read outwards from the residue. Primed or numbered codes have the meaning given here. No end group written: not given here. *: point of attachment. C18 diacid = O=C(O)CCCCCCCCCCCCCCCCC(=O)*; Dip = N[C@H](C(=O)O)C(c1ccccc1)c1ccccc1; Heptadecanoyl = CCCCCCCCCCCCCCCCC(=O)*; γGlu = O=C(O)[C@H](CCC(=O)[*:2])N[*:1]; Stearoyl = CCCCCCCCCCCCCCCCCC(=O)*; Palmitoyl = CCCCCCCCCCCCCCCC(=O)*; αMeF = C[C@](N)(Cc1ccccc1)C(=O)O; Myristoyl = CCCCCCCCCCCCCC(=O)*; (PEG)2 = polyethylene glycol 2; PEG2′ = polyethylene glycol 2; PEG4′ = polyethylene glycol; PEG2 = NCCOCCOCCC(=O)O; AEEA = NCCOCCOCC(=O)O; Aib = CC(C)(N)C(=O)O

Key:
[1] = biological target: human glucagon receptor (human, UniProt P47871); assay: cell-based or functional assay
[2] = biological target: human GLP-1 receptor (human, UniProt P43220); assay: cell-based or functional assay

Binder | cAMP production, hGluc-R EC50 (pM) [1] [pM] | cAMP production, hGLP-1R EC50 (pM) [2] [pM]
HSQGS[αMeF]TSDVSK[αMeF]LDSKAAQD[αMeF]VQ[Aib]LEAGG-NH2 (not fully specified (residue 17)) [Peptide 80] | 9.18 | 1.03
HSQGS[αMeF]TSDVSK[αMeF]LDSK([(PEG)2-(PEG)2-γGlu-γGlu-Heptadecanoyl])AAQD[αMeF]VQ[Aib]IAN-NH2 [Peptide 88] | 6.47 | 1.04
HSQGS[αMeF]TSDVSK[αMeF]LDSK([PEG2′-PEG2′-γGlu-γGlu-Palmitoyl])AAQD[αMeF]VQ[Aib]LEAGG-NH2 [Peptide 79] | 10.7 | 1.73
HSQGS[αMeF]TSDVSK[αMeF]LDSK([PEG2′-PEG2′-γGlu-γGlu-Palmitoyl])AAQD[αMeF]VQ[Aib]IAN-NH2 (not fully specified) [Peptide 89] | 15.3 | 3.77
HSQGS[αMeF]TSDVSK(Ac)[Aib]LDSK([AEEA-AEEA-γGlu-C18 diacid])AAQD[αMeF]VQ[Aib]IAN-NH2 (N-terminus assumed; SMILES CC[C@H](C)[C@H](NC(=O)C(C)(C)NC(=O)[C@H](CCC(N)=O)NC(=O)[C@@H](NC(=O)[C@](C)(Cc1ccccc1)NC(=O)[C@H](CC(=O)O)NC(=O)[C@H](CCC(N)=O)NC(=O)[C@H](C)NC(=O)[C@H](C)NC(=O)[C@H](CCCCNC(=O)COCCOCCNC(=O)COCCOCCNC(=O)CC[C@H](NC(=O)CCCCCCCCCCCCCCCCC(=O)O)C(=O)O)NC(=O)[C@H](CO)NC(=O)[C@H](CC(=O)O)NC(=O)[C@H](CC(C)C)NC(=O)C(C)(C)NC(=O)[C@H](CCCCNC(C)=O)NC(=O)[C@H](CO)NC(=O)[C@@H](NC(=O)[C@H](CC(=O)O)NC(=O)[C@H](CO)NC(=O)[C@@H](NC(=O)[C@](C)(Cc1ccccc1)NC(=O)[C@H](CO)NC(=O)CNC(=O)[C@H](CCC(N)=O)NC(=O)[C@H](CO)NC(=O)[C@@H](N)Cc1c[nH]cn1)[C@@H](C)O)C(C)C)C(C)C)C(=O)N[C@@H](C)C(=O)N[C@@H](CC(N)=O)C(N)=O) [Peptide 109] | > 26800 | 698
H[Aib]QGS[αMeF]TSDVSK[Dip]LDSK([PEG2′-PEG2′-γGlu-Palmitoyl])AAQD[αMeF]VQ[Aib]IAN-NH2 [Peptide 67] | 9.49 | 2.43
HSQGS[αMeF]TSDVSK(Ac)[Aib]LDSK([(PEG)2-(PEG)2-γGlu-γGlu-Stearoyl])AAQD[αMeF]VQ[Aib]IAN-NH2 [Peptide 110] | 48.5 | 0.627
H[Aib]HGS[αMeF]TSDVSK[αMeF]LDSK([AEEA-AEEA-γGlu-C18 diacid])AAQDFVQ[Aib]IANT-NH2 [Peptide 11] | 118 | 157
H[Aib]HGS[αMeF]TSDVSK[αMeF]LDSK([AEEA-AEEA-γGlu-C18 diacid])AARDFVQ[Aib]IANT-NH2 (N-terminus assumed; SMILES CC[C@H](C)[C@H](NC(=O)C(C)(C)NC(=O)[C@H](CCC(N)=O)NC(=O)[C@@H](NC(=O)[C@H](Cc1ccccc1)NC(=O)[C@H](CC(=O)O)NC(=O)[C@H](CCCNC(=N)N)NC(=O)[C@H](C)NC(=O)[C@H](C)NC(=O)[C@H](CCCCNC(=O)COCCOCCNC(=O)COCCOCCNC(=O)CC[C@H](NC(=O)CCCCCCCCCCCCCCCCC(=O)O)C(=O)O)NC(=O)[C@H](CO)NC(=O)[C@H](CC(=O)O)NC(=O)[C@H](CC(C)C)NC(=O)[C@](C)(Cc1ccccc1)NC(=O)[C@H](CCCCN)NC(=O)[C@H](CO)NC(=O)[C@@H](NC(=O)[C@H](CC(=O)O)NC(=O)[C@H](CO)NC(=O)[C@@H](NC(=O)[C@](C)(Cc1ccccc1)NC(=O)[C@H](CO)NC(=O)CNC(=O)[C@H](Cc1c[nH]cn1)NC(=O)C(C)(C)NC(=O)[C@@H](N)Cc1c[nH]cn1)[C@@H](C)O)C(C)C)C(C)C)C(=O)N[C@@H](C)C(=O)N[C@@H](CC(N)=O)C(=O)N[C@H](C(N)=O)[C@@H](C)O) [Peptide 12] | 47.7 | 14.5
HSQGS[αMeF]TSDVSK[αMeF]LDSK([(PEG)2-(PEG)2-γGlu-γGlu-Palmitoyl])AAQD[αMeF]VQ[Aib]IAN-NH2 [Peptide 87] | 8.46 | 1.29
H[Aib]QGS[αMeF]TSDVSK[αMeF]LDSK([PEG4′-γGlu-γGlu-Palmitoyl])AAQD[αMeF]VE[Aib]LEAGG-NH2 [Peptide 72] | 73.7 | 3.42
HSQGS[αMeF]TSDVSK[Dip]LDSK([PEG2-PEG2-γGlu-γGlu-C18 diacid])AAQD[αMeF]VE[Aib]IINT-NH2 [Peptide 65] | 2060 | 1230
HSQGS[αMeF]TSDVSK[Aib]LDSK([(PEG)2-(PEG)2-γGlu-γGlu-Palmitoyl])AAQD[αMeF]VQ[Aib]IIE-NH2 [Peptide 99] | 33.2 | 2.21
H[Aib]HGS[αMeF]TSDVSK[αMeF]LDSK([AEEA-AEEA-γGlu-C18 diacid])AARD[αMeF]VQ[Aib]IANT-NH2 (N-terminus assumed; SMILES CC[C@H](C)[C@H](NC(=O)C(C)(C)NC(=O)[C@H](CCC(N)=O)NC(=O)[C@@H](NC(=O)[C@](C)(Cc1ccccc1)NC(=O)[C@H](CC(=O)O)NC(=O)[C@H](CCCNC(=N)N)NC(=O)[C@H](C)NC(=O)[C@H](C)NC(=O)[C@H](CCCCNC(=O)COCCOCCNC(=O)COCCOCCNC(=O)CC[C@H](NC(=O)CCCCCCCCCCCCCCCCC(=O)O)C(=O)O)NC(=O)[C@H](CO)NC(=O)[C@H](CC(=O)O)NC(=O)[C@H](CC(C)C)NC(=O)[C@](C)(Cc1ccccc1)NC(=O)[C@H](CCCCN)NC(=O)[C@H](CO)NC(=O)[C@@H](NC(=O)[C@H](CC(=O)O)NC(=O)[C@H](CO)NC(=O)[C@@H](NC(=O)[C@](C)(Cc1ccccc1)NC(=O)[C@H](CO)NC(=O)CNC(=O)[C@H](Cc1c[nH]cn1)NC(=O)C(C)(C)NC(=O)[C@@H](N)Cc1c[nH]cn1)[C@@H](C)O)C(C)C)C(C)C)C(=O)N[C@@H](C)C(=O)N[C@@H](CC(N)=O)C(=O)N[C@H](C(N)=O)[C@@H](C)O) [Peptide 13] | 44 | 15.9
HSQGS[αMeF]TSDVSK[Aib]LDSK([(PEG)2-(PEG)2-γGlu-γGlu-Stearoyl])AAQD[αMeF]VQ[Aib]IAN-NH2 [Peptide 100] | 40.5 | 0.258

Other lines, results leading:

cAMP production, hGluc-R EC50 (pM) [1] [pM] | cAMP production, hGLP-1R EC50 (pM) [2] [pM] | Binder
1.2 | 1.07 | HSQGS[αMeF]TSDVSKILDSK([(PEG)2-(PEG)2-γGlu-γGlu-Palmitoyl])AAQD[αMeF]VQ[Aib]IINT-NH2 [Peptide 118]
2.62 | 1.81 | HSQGS[αMeF]TSDVSKILDSK([(PEG)2-(PEG)2-γGlu-Stearoyl])AAQD[αMeF]VQ[Aib]IINT-NH2 [Peptide 120]
2.09 | 1.92 | HSQGS[αMeF]TSDVSKILDSKAAQD[αMeF]VQ[Aib]IAN-NH2 (not fully specified (residue 17)) [Peptide 111]
6.68 | 0.575 | H[Aib]QGS[αMeF]TSDVSKILDSK([(PEG)2-(PEG)2-γGlu-γGlu-Palmitoyl])AAQD[αMeF]VQ[Aib]IINT-NH2 [Peptide 125]
1.7 | 1.39 | HSQGS[αMeF]TSDVSKILDSK([(PEG)2-(PEG)2-γGlu-γGlu-Myristoyl])AAQD[αMeF]VQ[Aib]IINT-NH2 [Peptide 119]
1.2 | 1.5 | HSQGS[αMeF]TSDVSKILDSK([(PEG)2-(PEG)2-γGlu-Palmitoyl])AAQD[αMeF]VQ[Aib]IINT-NH2 [Peptide 121]
0.857 | 1.42 | HSQGS[αMeF]TSDVSKILDSK([(PEG)2-(PEG)2-γGlu-Myristoyl])AAQD[αMeF]VQ[Aib]IINT-NH2 [Peptide 122]
12.6 | 0.998 | H[Aib]QGS[αMeF]TSDVSKILDSK([(PEG)2-(PEG)2-γGlu-Stearoyl])AAQD[αMeF]VQ[Aib]IINT-NH2 [Peptide 127]
